The source of these data is patent publication US20200369765A1 (INNATE PHARMA, published 2020).

The target in experiment [1] is T1, Human Siglec-12 (human, UniProt Q96PQ1 19-595).
T1 construct: Expressed on transfected CHO cells; also called HuSiglec-12
Nature of the experiment: flow cytometry, CHO transfectants.

In experiment [2] the target is T2, Human Siglec-5 (human, UniProt O15389 17-551).
T2 construct: Expressed on transfected CHO cells; also called HuSiglec-5
T2 sequence: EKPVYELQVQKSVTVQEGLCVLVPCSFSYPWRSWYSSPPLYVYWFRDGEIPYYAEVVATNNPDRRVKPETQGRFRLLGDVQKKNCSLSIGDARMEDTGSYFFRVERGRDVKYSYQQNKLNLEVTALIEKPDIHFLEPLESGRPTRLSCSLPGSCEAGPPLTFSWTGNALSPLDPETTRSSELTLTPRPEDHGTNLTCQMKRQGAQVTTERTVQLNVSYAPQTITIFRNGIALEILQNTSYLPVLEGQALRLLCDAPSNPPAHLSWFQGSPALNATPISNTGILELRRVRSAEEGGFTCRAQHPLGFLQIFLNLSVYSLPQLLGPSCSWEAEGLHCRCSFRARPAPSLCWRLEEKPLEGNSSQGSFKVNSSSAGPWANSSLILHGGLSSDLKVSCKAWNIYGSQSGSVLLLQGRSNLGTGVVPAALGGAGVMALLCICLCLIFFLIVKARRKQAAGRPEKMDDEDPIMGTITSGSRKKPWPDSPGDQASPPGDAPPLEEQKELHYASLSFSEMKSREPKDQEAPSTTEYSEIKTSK
In words: flow cytometry, CHO transfectants.

For experiment [3], the target named is T3, Human Siglec-3 (human, UniProt P20138 18-364).
T3 construct: Expressed on transfected CHO cells; also called HuSiglec-3; CD33
In words: flow cytometry, CHO transfectants. A general note: In flow cytometry, cells or beads pass a laser one at a time.

Experiment [4] has as its target T4, Human Siglec-8 (human, UniProt Q9NYZ4 17-499).
T4 construct: Expressed on transfected CHO cells; also called HuSiglec-8
In words: flow cytometry, CHO transfectants.

Experiment [5] deals with T5, Human Siglec-6 (human, UniProt O43699 27-453).
T5 construct: Expressed on transfected CHO cells; also called HuSiglec-6
In words: flow cytometry, CHO transfectants.

The target in experiment [6] is T6, Human Siglec-10 (human, UniProt Q96LC7 17-697).
T6 construct: Expressed on transfected CHO cells; also called HuSiglec-10
T6 sequence: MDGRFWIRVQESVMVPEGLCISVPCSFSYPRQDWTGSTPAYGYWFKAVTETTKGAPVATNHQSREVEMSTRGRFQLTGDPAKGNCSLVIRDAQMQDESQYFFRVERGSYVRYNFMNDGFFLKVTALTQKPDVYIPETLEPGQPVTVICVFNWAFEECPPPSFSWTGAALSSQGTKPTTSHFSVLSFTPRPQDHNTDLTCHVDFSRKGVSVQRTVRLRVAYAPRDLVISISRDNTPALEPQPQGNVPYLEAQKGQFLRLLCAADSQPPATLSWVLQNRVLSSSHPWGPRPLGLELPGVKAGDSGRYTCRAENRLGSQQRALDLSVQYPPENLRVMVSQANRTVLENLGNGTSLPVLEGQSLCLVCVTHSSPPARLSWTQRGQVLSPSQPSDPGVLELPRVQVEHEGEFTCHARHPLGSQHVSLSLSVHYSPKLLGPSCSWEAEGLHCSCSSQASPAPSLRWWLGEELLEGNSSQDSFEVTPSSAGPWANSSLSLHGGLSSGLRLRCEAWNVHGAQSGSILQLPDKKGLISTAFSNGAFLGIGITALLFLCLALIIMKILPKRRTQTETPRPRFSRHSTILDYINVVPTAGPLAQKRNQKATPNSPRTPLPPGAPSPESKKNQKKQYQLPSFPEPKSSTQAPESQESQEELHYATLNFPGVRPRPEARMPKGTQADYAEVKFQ
In words: flow cytometry, CHO transfectants.

Experiment [7] concerns the target T7, Human Siglec-11 (human, UniProt Q96RL6 29-698).
T7 construct: Expressed on transfected CHO cells; also called HuSiglec-11
T7 sequence: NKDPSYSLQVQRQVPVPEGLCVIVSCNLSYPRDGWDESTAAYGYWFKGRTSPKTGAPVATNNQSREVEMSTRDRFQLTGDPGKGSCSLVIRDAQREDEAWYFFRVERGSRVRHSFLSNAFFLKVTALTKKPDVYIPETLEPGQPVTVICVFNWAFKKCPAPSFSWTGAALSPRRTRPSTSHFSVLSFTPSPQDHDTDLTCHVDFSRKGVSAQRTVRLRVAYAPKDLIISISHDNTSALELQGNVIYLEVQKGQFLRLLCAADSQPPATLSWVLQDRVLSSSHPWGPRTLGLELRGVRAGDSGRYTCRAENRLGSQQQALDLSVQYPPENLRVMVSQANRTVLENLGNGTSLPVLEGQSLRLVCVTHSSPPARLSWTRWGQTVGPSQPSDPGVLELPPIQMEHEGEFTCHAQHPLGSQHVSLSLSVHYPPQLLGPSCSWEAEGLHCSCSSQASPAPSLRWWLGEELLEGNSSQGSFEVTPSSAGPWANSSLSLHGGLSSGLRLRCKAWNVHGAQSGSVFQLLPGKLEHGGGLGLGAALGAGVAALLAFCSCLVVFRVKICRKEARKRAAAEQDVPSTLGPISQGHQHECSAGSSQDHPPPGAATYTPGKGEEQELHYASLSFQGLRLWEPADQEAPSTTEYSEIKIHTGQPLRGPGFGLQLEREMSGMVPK
Nature of the experiment: flow cytometry, CHO transfectants.

For experiment [8], the target named is T8, Human Siglec-9 mutant M14 (human, UniProt Q9Y336 18-463).
T8 construct: Expressed on HEK293T cells; also called Mutant 14
Nature of the experiment: flow cytometry, HEK293T transfectants.

Experiment [9] deals with T9, Human Siglec-9 mutant M7 (human, UniProt Q9Y336 18-463).
T9 construct: Expressed on HEK293T cells; also called Mutant 7
In words: flow cytometry, HEK293T transfectants.

Experiment [10] addresses T10, Human Siglec-9 mutant M6 (human, UniProt Q9Y336 18-463).
T10 construct: Expressed on HEK293T cells; also called Mutant 6
In words: flow cytometry, HEK293T transfectants.

In experiment [11] the target is T11, Human Siglec-9 mutant M2 (human, UniProt Q9Y336 18-463).
T11 construct: Expressed on HEK293T cells; also called Mutant 2
Nature of the experiment: flow cytometry, HEK293T transfectants.

The target of experiment [12] is T12, Human Siglec-9 mutant M15 (human, UniProt Q9Y336 18-463).
T12 construct: Expressed on HEK293T cells; also called Mutant 15
In words: flow cytometry, HEK293T transfectants.

Experiment [13] concerns the target T13, Human Siglec-9 mutant M8 (human, UniProt Q9Y336 18-463).
T13 construct: Expressed on HEK293T cells; also called Mutant 8
Nature of the experiment: flow cytometry, HEK293T transfectants.

T9 sequence (Q9Y336 other isoform, or with tags, fused parts or gaps mutant): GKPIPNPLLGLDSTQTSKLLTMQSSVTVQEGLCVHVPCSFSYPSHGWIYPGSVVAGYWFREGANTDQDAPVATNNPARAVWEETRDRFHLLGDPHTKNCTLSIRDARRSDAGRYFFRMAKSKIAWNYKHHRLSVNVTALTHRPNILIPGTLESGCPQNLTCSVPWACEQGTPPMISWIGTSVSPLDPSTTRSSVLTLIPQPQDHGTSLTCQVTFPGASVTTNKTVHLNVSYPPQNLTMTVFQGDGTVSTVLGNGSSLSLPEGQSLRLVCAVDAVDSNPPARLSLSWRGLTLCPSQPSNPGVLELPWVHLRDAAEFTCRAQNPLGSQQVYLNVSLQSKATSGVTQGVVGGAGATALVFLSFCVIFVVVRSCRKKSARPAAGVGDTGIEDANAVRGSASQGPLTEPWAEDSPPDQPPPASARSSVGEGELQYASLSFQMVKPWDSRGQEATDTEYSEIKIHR
T10 sequence (Q9Y336 other isoform, or with tags, fused parts or gaps mutant): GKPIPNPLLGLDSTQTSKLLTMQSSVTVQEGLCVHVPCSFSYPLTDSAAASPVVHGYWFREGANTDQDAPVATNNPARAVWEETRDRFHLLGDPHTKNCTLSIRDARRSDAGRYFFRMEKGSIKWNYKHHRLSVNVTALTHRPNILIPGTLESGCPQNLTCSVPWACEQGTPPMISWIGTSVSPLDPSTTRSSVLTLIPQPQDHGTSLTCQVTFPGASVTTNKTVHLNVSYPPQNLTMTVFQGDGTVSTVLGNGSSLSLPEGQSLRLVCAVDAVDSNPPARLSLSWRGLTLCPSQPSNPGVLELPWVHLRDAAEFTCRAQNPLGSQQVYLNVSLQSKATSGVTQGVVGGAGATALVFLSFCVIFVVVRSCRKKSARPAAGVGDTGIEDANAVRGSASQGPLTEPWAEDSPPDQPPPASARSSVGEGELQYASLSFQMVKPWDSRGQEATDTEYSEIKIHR
T1 sequence (Q96PQ1 19-595): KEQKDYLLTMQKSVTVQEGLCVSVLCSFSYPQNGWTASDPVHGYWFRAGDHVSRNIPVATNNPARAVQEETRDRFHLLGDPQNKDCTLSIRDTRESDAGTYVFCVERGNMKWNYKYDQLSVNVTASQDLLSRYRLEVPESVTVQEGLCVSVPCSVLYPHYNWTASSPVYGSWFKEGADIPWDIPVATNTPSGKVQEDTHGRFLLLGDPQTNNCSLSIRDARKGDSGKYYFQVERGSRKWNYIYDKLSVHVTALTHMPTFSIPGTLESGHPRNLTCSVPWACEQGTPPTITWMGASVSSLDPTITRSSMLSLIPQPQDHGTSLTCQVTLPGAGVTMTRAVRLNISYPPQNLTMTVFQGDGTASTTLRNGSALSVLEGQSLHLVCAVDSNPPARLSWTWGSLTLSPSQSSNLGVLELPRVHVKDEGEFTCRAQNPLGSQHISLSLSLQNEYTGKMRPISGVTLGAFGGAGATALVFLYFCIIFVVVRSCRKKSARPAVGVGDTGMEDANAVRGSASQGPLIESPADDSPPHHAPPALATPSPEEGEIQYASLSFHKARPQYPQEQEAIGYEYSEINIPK
T5 sequence (O43699 other isoform, or with tags, fused parts or gaps): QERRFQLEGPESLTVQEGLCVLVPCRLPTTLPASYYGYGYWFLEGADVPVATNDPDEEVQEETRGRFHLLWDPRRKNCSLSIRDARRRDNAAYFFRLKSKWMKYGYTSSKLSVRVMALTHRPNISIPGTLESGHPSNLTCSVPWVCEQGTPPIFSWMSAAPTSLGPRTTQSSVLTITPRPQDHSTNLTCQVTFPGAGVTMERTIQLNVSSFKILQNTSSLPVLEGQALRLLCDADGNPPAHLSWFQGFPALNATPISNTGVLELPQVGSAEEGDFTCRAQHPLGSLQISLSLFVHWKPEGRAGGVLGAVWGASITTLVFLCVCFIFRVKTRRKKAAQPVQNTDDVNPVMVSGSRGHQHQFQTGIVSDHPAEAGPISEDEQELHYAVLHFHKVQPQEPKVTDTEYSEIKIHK
T13 sequence (Q9Y336 other isoform, or with tags, fused parts or gaps mutant): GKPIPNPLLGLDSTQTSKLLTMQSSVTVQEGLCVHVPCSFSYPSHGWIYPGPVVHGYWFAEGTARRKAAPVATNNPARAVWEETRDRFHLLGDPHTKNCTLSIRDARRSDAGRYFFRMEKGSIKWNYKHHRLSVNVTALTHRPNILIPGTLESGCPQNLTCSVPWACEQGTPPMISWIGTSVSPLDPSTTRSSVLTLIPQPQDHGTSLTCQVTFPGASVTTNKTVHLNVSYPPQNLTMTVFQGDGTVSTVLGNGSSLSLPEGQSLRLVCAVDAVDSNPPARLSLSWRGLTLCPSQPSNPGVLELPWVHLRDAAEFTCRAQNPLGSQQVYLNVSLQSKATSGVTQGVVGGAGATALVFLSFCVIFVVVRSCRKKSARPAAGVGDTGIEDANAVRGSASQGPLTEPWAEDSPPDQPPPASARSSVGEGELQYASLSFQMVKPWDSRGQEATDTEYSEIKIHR
T8 sequence (Q9Y336 other isoform, or with tags, fused parts or gaps mutant): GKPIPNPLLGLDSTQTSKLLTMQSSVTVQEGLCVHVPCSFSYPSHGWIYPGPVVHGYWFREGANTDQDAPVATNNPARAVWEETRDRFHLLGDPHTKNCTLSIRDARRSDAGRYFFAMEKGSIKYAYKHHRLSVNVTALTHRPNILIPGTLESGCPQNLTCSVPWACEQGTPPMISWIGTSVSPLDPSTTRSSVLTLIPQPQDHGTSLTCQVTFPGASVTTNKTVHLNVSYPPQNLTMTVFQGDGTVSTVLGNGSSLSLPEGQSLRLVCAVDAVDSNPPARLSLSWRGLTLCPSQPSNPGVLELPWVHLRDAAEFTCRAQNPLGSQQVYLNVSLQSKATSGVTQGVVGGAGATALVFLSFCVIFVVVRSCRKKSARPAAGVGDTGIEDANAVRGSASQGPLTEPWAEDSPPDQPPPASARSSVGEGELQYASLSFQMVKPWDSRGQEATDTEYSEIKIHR
T4 sequence (Q9NYZ4 17-499): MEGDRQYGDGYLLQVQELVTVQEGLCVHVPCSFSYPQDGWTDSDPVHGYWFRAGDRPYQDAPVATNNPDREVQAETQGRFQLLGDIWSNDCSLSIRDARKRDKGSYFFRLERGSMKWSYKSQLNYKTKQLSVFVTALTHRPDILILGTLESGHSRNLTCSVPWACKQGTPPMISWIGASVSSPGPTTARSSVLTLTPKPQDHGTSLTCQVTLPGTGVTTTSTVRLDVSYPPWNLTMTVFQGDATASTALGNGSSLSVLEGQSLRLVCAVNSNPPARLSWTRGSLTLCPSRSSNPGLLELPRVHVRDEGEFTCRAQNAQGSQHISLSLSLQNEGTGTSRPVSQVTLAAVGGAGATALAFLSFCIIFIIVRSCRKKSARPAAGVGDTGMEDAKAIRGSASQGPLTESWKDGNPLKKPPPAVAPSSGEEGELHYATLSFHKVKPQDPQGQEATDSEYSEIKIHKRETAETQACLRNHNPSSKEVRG
T12 sequence (Q9Y336 other isoform, or with tags, fused parts or gaps mutant): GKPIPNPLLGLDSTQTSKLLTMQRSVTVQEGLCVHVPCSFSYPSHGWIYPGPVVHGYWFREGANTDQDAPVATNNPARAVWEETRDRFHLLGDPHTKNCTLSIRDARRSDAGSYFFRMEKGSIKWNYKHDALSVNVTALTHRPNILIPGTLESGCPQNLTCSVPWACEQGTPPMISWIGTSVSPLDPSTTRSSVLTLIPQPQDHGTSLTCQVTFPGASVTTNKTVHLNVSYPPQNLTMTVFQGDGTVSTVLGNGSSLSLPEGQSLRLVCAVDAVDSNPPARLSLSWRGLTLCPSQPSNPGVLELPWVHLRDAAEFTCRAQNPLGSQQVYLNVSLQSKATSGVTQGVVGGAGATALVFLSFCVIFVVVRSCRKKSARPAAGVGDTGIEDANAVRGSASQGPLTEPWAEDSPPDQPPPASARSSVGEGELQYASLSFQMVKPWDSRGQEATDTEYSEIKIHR
T3 sequence (P20138 18-364 R69G): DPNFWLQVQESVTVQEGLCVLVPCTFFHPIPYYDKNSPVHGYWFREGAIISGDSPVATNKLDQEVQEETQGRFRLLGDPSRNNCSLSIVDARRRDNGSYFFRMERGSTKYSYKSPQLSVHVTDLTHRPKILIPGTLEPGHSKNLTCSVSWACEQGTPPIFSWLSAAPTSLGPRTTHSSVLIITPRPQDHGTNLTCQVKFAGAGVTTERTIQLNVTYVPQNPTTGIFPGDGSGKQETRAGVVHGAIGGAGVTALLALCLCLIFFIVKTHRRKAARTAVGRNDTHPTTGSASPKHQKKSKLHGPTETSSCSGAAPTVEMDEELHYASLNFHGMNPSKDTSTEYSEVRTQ

B1: mAbF (antibody, human IgG1, V domains shown)
VH: QVQLQQSGPEVVRPGVSVKISCKGSGYTFTDYSMHWVKQSHAKSLEWIGVISTYNGNTNYNQKFKGKATMTVDKSSSTAYMELARLTSEDSAIYYCARRGYYGSSSWFGYWGQGTLVTVSA
VL: DIVMTQSQKFMSTSVGDRVSVTCKASQNVGTDVAWYQQKPGQSPEALIYSASYRYSGVPDRFTGSGSGADFTLTISNVQSEDLAEYFCQQYNSFPYTFGGGTKLEIK
Consider B1, for which the binding result in experiment [1], in experiment [2], in experiment [3], in [4], in experiment [5] and in [6] was “no binding” in each case. In addition, the binding result is “no binding” in [7]; “binds” in experiment [8]; “binds” in experiment [9]; “binds” in experiment [10]; “binds” in experiment [11]; “binds” in experiment [12].

B2: mAbE (antibody, human IgG1, V domains shown)
VH: DVQLVESGGGLVQPGGSRKLSCAASGFTFSTFGMHWVRQAPEKGLEWVAYISSGSNAIYYADTVKGRFTISRDNPKNTLFLQMTSLRSEDTAMYYCASPGYGAWFAYWGQGTLVTVSA
VL: ENVLTQSPAIMSASPGEKVTMTCRASSSVSSAYLHWYQQKSGASPKLWIYSTSNLASGVPARFSGSGSGTSYSLTISSVEAEDAATYYCQQYSAYPYTFGGGTKLEIK
On to B2, for which the binding result in experiment [1], in [2], in experiment [3], in [4], in experiment [5] and in experiment [6] was “no binding” each time. The binding result in experiment [7] is listed as “no binding”; in [8], “binds”; in experiment [9] it was “binds”; in experiment [10], “binds”; in experiment [11], “binds”; in [12], “binds”.

B3: mAb1 (antibody, human IgG1, V domains shown)
VH: DVQLQESGPGLVKPSQSLSLTCTVTGYSITGGFAWNWIRQFPGNTLEWMGYIGYGGSTSYNPSLNSRISITRDTSKNHFFLQFNSVTTDDSATYYCARGDYLFAYWGQGTLVTVSA
VL: DIVMTQSHKFMSTSVGDRVSITCKASQDVNTAVAWYQQKPGQSPKLLIYSASYRYTGVPDRFTGSGSGTDFTFTISSVQAEDLAVYYCQQHYSTPRTFGGGTKLEIK
With B3, the binding result in experiment [1] is “binds”; in experiment [2], “no binding”; in experiment [3] it was “no binding”; in experiment [4], “no binding”; in [5], “no binding”; in experiment [6], “no binding”. In addition, the binding result in [7] is “no binding”; in [8] it was “binds”; in experiment [9], “binds”; in experiment [10] it was “binds”; in experiment [11], “binds”; in experiment [12], “binds”. The binding result in experiment [13] is reported as “binds”.

B4: mAb2 (antibody, human IgG1, V domains shown)
VH: EVQLQESGPGLVKPSQSLSLTCTVTGYSITGGFAWNWIRQFPGNTLEWMGYIGYGGSTSYNPSLNSRISITRDTSKNHFFLQFNSVTTEDSATYYCARGDYLFAYWGQGTLVTVSA
VL: DIVMTQSHKFMSTSVGDRVSITCKASQDVNTAVAWYQQKPGQSPKLLIYSASYRYTGVPDRFTGSGSGTDFTFTISSVQAEDLAVYYCQQHYSTPRTFGGGTKLEIK
On to B4, for which the binding result is recorded as “binds” in experiment [1]; “no binding” in [2]; “no binding” in experiment [3]; “no binding” in experiment [4]; “no binding” in experiment [5]; “no binding” in [6]. The binding result in [7] is reported as “no binding”; in experiment [8], “binds”; in experiment [9] it was “binds”; in [10], “binds”; in [11], “binds”; in [12], “binds”. Moreover, in experiment [13], the binding result is reported as “binds”.

B5: mAbD (antibody, human IgG1, V domains shown)
VH: QIQLVQSGPELKKPGETVKISCKASGYTFTDYSMHWVKQAPGKGLKWMGWIITETGEPTYADDFRGRFAFSLETSANTAYLQINNLKNEDTATYFCARDFDGYWGQGTTLTVSS
VL: DILMTQSPASLSASVGETVTITCRASENIYSYLAWYQQKRGKSPQFLVYNAKTLTEGVPSRFRGSGSGTQFSLKINSLQPEDFGTYYCQHHYGFPWTFGGGTKLEIK
Consider B5, for which the binding result in experiment [1], in experiment [2], in [3], in experiment [4], in experiment [5] and in experiment [6] was “no binding” throughout. In addition, the binding result in experiment [7] is given as “no binding”; in [8], “binds”; in experiment [11] it was “binds”; in experiment [12], “binds”; in [13] it was “binds”.
